The record followed here is article PMC5849677 (2018).

Experiment in all cases: SPR
For one assay, the target named is hC3dg (aa 955-1303)-Fc (human, UniProt P01024 955-1303).
The target in assay [1] is hC3d(s)-Fc (Cys to Ser variant of hC3d-Fc) (human, UniProt P01024 1001-1303).
The target in assay [2] is native hC3d (containing 9th cysteine)-Fc (human, UniProt P01024 1001-1303).
Sequence of native hC3d (containing 9th cysteine)-Fc (P01024 1001-1303): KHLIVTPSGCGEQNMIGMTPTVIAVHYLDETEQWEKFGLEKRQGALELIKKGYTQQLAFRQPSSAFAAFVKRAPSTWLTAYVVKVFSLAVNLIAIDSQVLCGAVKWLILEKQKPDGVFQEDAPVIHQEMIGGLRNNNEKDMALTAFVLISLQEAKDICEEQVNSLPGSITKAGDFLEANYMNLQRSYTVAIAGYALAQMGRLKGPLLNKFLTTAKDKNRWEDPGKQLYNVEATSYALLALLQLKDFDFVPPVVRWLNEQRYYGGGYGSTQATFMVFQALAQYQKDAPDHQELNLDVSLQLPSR

Sequence of hC3dg (aa 955-1303)-Fc (P01024 955-1303): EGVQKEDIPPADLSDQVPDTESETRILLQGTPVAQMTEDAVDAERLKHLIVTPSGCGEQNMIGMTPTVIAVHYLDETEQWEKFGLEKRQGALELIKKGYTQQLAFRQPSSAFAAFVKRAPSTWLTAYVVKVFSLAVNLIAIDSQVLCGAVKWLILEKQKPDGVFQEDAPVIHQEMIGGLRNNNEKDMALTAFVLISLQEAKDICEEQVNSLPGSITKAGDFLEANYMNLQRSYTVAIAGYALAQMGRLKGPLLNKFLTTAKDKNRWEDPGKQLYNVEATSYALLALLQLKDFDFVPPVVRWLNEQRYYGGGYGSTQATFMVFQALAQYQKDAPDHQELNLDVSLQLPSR
Sequence of hC3d(s)-Fc (Cys to Ser variant of hC3d-Fc) (P01024 other isoform, or with tags, fused parts or gaps mutant): as the sequence (P01024 1001-1303) above, with C10S counted along it

B1: hCR2 (SCR1-4)-Fc (Fc fusion)
chain: ISCGSPPPILNGRISYYSTPIAVGTVIRYSCSGTFRLIGEKSLLCITKDKVDGTWDKPAPKCEYFNKYSSCPEPIVPGGYKIRGSTPYRHGDSVTFACKTNFSMNGNKSVWCQANNMWGPTRLPTCVSVFPLECPALPMIHNGHHTSENVGSIAPGLSVTYSCESGYLLVGEKIINCLSSGKWSAVPPTCEEARCKSLGRFPNGKVKEPPILRVGVTANFFCDEGYRLQGPPSSRCVIAGQGVAWTKMPVCEE
On to B1, for which the Kd (in general, the concentration at which binding is half-saturated) is 3.17 nM in the assay with hC3dg (aa 955-1303)-Fc, 7.66 nM in assay [1] and 5.18 nM in assay [2].
